Reference: the Human Domainome abundance scans (Beltran et al. 2025)

B1: Kinesin-like protein KIF16B, residues 1213 to 1273; numbered along this chain, Q96L93 (parent)
chain: ETWTVFRRYSRFREMHKTLKLKYAELAALEFPPKKLFGNKDERVIAERRSHLEKYLRDFFS

Variants of: B1
Test: abundance fitness (aPCA) (normalised: wild type 0, dead -1); higher = more abundant; growth selection in yeast, the domain comes from the species named
Conditions: Homo sapiens

Abundance fitness of substitutions, site by site:
P32: W 0.353, H 0.166, L 0.296, Q -0.243, C 0.171, N 0.209, K 0.275, Y -0.691, D -0.082, A 0.075, M 0.191, R 0.139, E -0.374, T 0.069, S 0.159, F 0.329
L29: Y -0.31
G38: I -0.347, F -0.224, Y -0.8, N -0.195, W -0.144, Q -0.076, A -0.202, K -0.346, L -0.458, D -0.678, H -0.151, T -0.061, C -0.46, P -0.279, S -0.234, M -0.492, E -0.173, R -0.145
L36: V -0.435, M -0.586, T -0.453, Q -0.976, Y -0.525, G -0.658, W 0.27, R -0.634, A -0.41, K -0.463, P -0.317, E -0.592, D -0.596, S -0.67, F -0.02, H -0.826
K40: Q -0.164, G -0.269
D41: A 0.154, H -0.025, K 0.028, V 0.159, M 0.231, S 0.065, C 0.101, G 0.038, L 0.332, W 0.354, I 0.394, N 0.08, T -0.101, R -0.184, Y 0.057, P -0.167, F 0.149, Q -0.064, E -0.07
F37: A -0.451, V -0.202, L -0.271, T -0.566, S -0.446, W -0.734, P -0.573, D -0.2, H -0.597, I -0.111, Q -0.476, G -0.334, R -0.35, E -0.407, K -0.189, C -0.631
K35: T -0.585, D -0.717, Q -0.233, M -0.36, V -0.34, A -0.204, N 0.034, I -0.521, G -0.148, E -0.786, Y -0.073, S -0.108
K34: A 0.368, V 0.06
E30: I 0.539, H -0.212, R 0.018, V 0.372, G 0.153, L 0.476, M 0.347, K -0.033, T 0.108, Q 0.036, Y 0.322, D 0.08, W 0.313, S 0.151, A 0.169, N 0.071
N39: H 0.05, Q 0.054, Y -0.347, E -0.397, V -0.011, K 0.203, S -0.033, W -0.108, A 0.174, G 0.036, T -0.291, I 0.06, R 0.04, M -0.063, P -0.102, F -0.246
E42: A -0.011, C 0.044
F31: R -0.692, A -0.573, Y -0.295, Q -0.716, C -0.644, N -0.703, E -0.46, K -0.752, S -0.699, V -0.545, T -0.949, L -0.397, W 0.194, I -0.64, G -0.862, D -0.946
P33: I 0.24, Y -0.378, S 0.022, A 0.047, L 0.366, T -0.02, D -1.07, F 0.495, K 0.035, Q -0.429, W 0.322, V 0.17, H 0.107, G 0.279, E -0.857
